# Results reported in the RNAGym collection of RNA variant scans (doi:10.1073/pnas.2313332121).
# B1: TPR t1 (parent)
# chain: GACCAAUCUGCCCUCAGAGCUCGAGAACAUCUUCGGAUGCAGAGGAGGCAGGCUUCGGUGGCGCGAUAGCGCCAACGUCCUCAACCUCCAAUGCAUCCCACCACAUGAUGAUGCCUGAAGAGCCUUGGUUUUUUG
# Variants of: B1
# Experiment: polymerase ribozyme fitness, log enrichment relative to wild type (log ratio); higher = more active; in vitro selection for triplet polymerase activity
# Procedure, shortened: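 Genotype fitness is the logarithm of its enrichment divided by wild-type enrichment, using inverse-variance-weighted averages of replicates. That logarithm is base 2. Enrichment was measured by Illumina sequencing of input and output libraries from one triplicate in vitro selection round, with frozen incubation at −7 °C, on PCR-built, transcribed mutant libraries of each subunit of a heterodimeric triplet polymerase ribozyme, retaining genotypes with ≥10 input reads and ≥1 read per output.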
row,Variant,polymerase ribozyme fitness (log ratio)
1,GACCAAUCUGCCCUCAGAGCUCGAGAACAUCACCGGAUGCAGAGGAGGCAGGCUUCGGUGGCGCGAUAGCGCCAACGUCCUCAACCUCCAAUGCAUCCCACCACAUGAUGAUGCCUGAAGUGCCUUGGUUUUUUA [U32A U33C A121U G135A],-4.41
2,GACCAAUCUGCCCUCAGAGCUCGAGAACAUCAUCGGACGCAGAGGAGGCAGGCUUCGGUGGCGCGAUACCGCCAACGUCCUCAACCUCCAAUGCUUCCCACCACAUGAUGAUGCCUGAAGAGCCUUGGUUUUUUG [U32A U38C G69C A95U],-6.24
3,GACCAAUCUGCCCUCAGAGCUCGAGAACAUCAUCGGAUGCAGAGGAGGCAGGCUUCGGCGGCGCGAUAGCGCCAACGUCCUCAACCUCCAAUGCAUCCCACCACAUGAUGAUGCCUGAAGAGCCUUGGUUUUUUG [U32A U59C],-3.8
4,GACCAAUCUGCCCUCAGAGCUCGAGAACAUCCUCGGAUGCCGAGGAGGCAGGCUUCGGUGGCGCGAUAGCGCCAACGUCCUCAACCUCCAAUGCAUCCCACCACAUGAUGAUGCCUGAAGAGCCUUGGUUUUUUG [U32C A41C],-1.24
5,GACCAAUCUGCCCUCAGAGCUCGAGAACAUCCUCGGAUGCAGAGGGGGCAGGCUUCGGUGGCGCGAUAGCGCCAACGUCCUCAACCUCCAAUGCAUCCCACCACAUGAAGAUGCCUGAAGAGCCUUGGUUUUUUG [U32C A46G U109A],-3.86
6,GACCAAUCUGCCCUCAGAGCUCGAGAACAUCCUCGGAUGCAGAGGUGGCAGGCUUCGGUGGCCCGAUAGCGCCAACGUCCUCAACCUCCAAUGCAUCCCACCAAAUGAUGAUGCCUCAAGAGCCUUGGUUUUUUG [U32C A46U G63C C104A G117C],-6.2
7,GACCAAUCUGCCCUCAGAGCUCGAGAACAUCCUCGGAUGCAGAGGAGGCAGGCUUCGGUGGCGCGAUAGCGCCAACGUCCUCAACCUCCAAUGCAUCCCCCCACAUGAUGAUGCCUGAAGAGCCUUGGUUUUUUG [U32C A100C],-1.02
8,GACCAAUCUGCCCUCAGAGCUCGAGAACAUCCUCGGAUGCAGAGGAGGCAGGCUUCGGUGGCGCGAUAGCGCCAACGUCCUCAACCUCCAAUGCAUCCCACCACGUGAGGAUGCCUAAAGAGCCUUGGUUUUUUG [U32C A105G U109G G117A],-7.37
9,GACCAAUCUGCCCUCAGAGCUCGAGAACAUCCUCGGAUGGAGAGGAGGCAGGCUUCUGUGGCGCGAUAGCGCCAACGUCCUCAACCUCCAAUGCAUCCCACCACAUGAUGAUGCCUCAAAAGCCUUGGUUUUUUG [U32C C40G G57U G117C G120A],-6.56
10,GACCAAUCUGCCCUCAGAGCUCGAGAACAUCCUCGGAUGCAGAGGAGGUAGGUUUCGGUGGCGCGAUAGCGCCAGCGUCCUCCACCUCCAAUGCAUCCUACCACAUGAUGAUGCCUGAAGAGCCUUGGUUUUUUG [U32C C49U C53U A75G A83C C99U],-5.45
11,GACCAAUCUGCCCUCAGAGCUCGAGAACAUCCUCGGAUGCAGAGGAGGCAGGUUUCGGUGGCGCGAUAGCGCCAACGUCCUCAACCUCCAAUGCAUCCCACCCCAUGAUGAUGCCUGAAGAGCCUUGGUUUUUUG [U32C C53U A103C],-4.2
12,GACCAAUCUGCCCUCAGAGCUCGAGAACAUCCUCGGAUGCAGAGGAGGCAGGCUUUGGUGGCGCGAUAGCGUCAACGUCCUCAACCUCCAAUGCAUCCCACCACAUGAUGUUGCCUGAAGAGCCUUGGUUUUUUG [U32C C56U C72U A111U],-3.66
13,GACCAAUCUGCCCUCAGAGCUCGAGAACAUCCUCGGAUGCAGAGGAGGCAGGCUUCGGUGGCGCGAUAGGGCCCACGUCCUCAACCUCCAAUGCAUCCCACCACAUGAUGAUGCCUGAAGAGCCUUGGUUUUUUG [U32C C70G A74C],-5.82
14,GACCAAUCUGCCCUCAGAGCUCGAGAACAUCCUCGGAUGCAGAGGAGGCAGGCUUCGGUGGCGCGAUAGCGACAACGUCCUAUACCUCCAAUGCAUCCCACCACAUGAUGAUGCCUGAAGAGCCUUGGUUUUUUG [U32C C72A C82A A83U],-0.635
15,GACCAAUCUGCCCUCAGAGCUCGAGAACAUCCUCGGAUGCAGAGGAGGCAGGCUUCGGUGGCGCGAUAGCGGCAACGUCCUCAACCUCCAAUGCAUCCCACCACAUGAUGAUGCCUUAAGAGCCUUGGUUUUUGG [U32C C72G G117U U134G],-1.41
16,GACCAAUCUGCCCUCAGAGCUCGAGAACAUCCUCGGAUGCAGAGGAGGCAGGCUUCGGUGGCGCGAUAGCGCCAACGUCCUCAACCUCCAAUGCAUACCACCACAUGAUGAUGCCUGAAGAGCUUUGGUUAUUUG [U32C C97A C124U U131A],-4.33
17,GACCAAUCUGCCCUCAGAGCUCGAGAACAUCCUCGGAUGCAGAGGAGGCAGGCUUCGGUGGCGCGAUAGCGCCAACGUCCUCAACCUCCAAUGCAUCCUACCACAUGAUGAUGCCUGAAGAGCCUUGGUUUUUUG [U32C C99U],-2.13
18,GACCAAUCUGCCCUCAGAGCUCGAGAACAUCCUCGAAUGCAGAGGAGGCAGGCUUCGGUGGCGCGAUAGCGCCAACGUCCUCAACCUCCAAAGCAUCCCACCACUUGAUGAUGCCUGAAGAGAGUUGGUUUUUUG [U32C G36A U92A A105U C123A C124G],-5.91
19,GACCAAUCUGCCCUCAGAGCUCGAGAACAUCCUCGGAUGCACAGGAGGCAGGCUUCGGUGGCGCGAUAGCGCCAACGUCCUCAACCUCCAAUGCAUCCCACCACAUGAUGAUGCCUGAAGAGGCUUGGUUUUUUG [U32C G42C C123G],1.74
20,GACCAAUCUGCCCUCAGAGCUCGAGAACAUCCUCGGAUGCAUAGGAGGCAGGCUUCGGUGGCGCGAUAGCGCCAACGUCCUCAACCUCCAAUGCAUCCCACCACAUGAUGAUGCCUGAAGAGCCUUGGUUUUUUG [U32C G42U],-2.17
21,GACCAAUCUGCCCUCAGAGCUCGAGAACAUCCUCGGAUGCAGAAGAGGCAGGCUUCGGUGUCGCGAUAGCGCCAACGUCCUCAACCUCCAAUGCAUCCCACCACAUGAUGAUGCCUGAAGAGCCUUGGUUGUUUG [U32C G44A G61U U131G],-0.948
